B1: AβC5-34 (cyclo-SASPT) (peptide)
peptide: SASPT
modifications: head-to-tail cyclic peptide (cyclo-SASPT), no free termini
notes: Made by solid-phase synthesis (Genscript); also called Aβ-targeting cyclic 5-peptide number 34
B2: AβC5-116 (cyclo-TAFDR) (peptide)
peptide: TAFDR
modifications: head-to-tail cyclic peptide (cyclo-TAFDR), no free termini
notes: Made by solid-phase synthesis (Genscript)
B3: SOD1C5-4 (cyclo-TWSVW) (peptide)
peptide: TWSVW
modifications: head-to-tail cyclic peptide (cyclo-TWSVW), no free termini
notes: Made by solid-phase synthesis (CPC Scientific); Backbone-cyclised pentapeptide; also called SODC5-4; selected cyclic pentapeptide SOD1C5-4

Results on three molecules are retold here after patent publication US11858974 (RESQ BIOTECH, dated 2024).

In this experiment the target is T1, SOD1(A4V), Ala4Val variant of human Cu/Zn superoxide dismutase 1 (human, UniProt P00441 2-154, A4V).
T1 construct: Isolated from E. coli Origami 2(DE3) (pETSOD1(A4V) or pASK-SOD1 vectors); also called isolated SOD1(A4V); mutant SOD1
T1 sequence (P00441 2-154 A5V): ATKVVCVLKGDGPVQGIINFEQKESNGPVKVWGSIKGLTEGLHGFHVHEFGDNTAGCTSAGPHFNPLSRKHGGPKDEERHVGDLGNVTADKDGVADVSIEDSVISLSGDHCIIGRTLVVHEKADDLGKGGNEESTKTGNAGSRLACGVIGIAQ
Nature of the experiment: CD spectroscopy of isolated SOD1(A4V) incubated with synthetic cyclic peptide. On the procedure:
Appropriate amounts of synthetic cyclic peptides were added to either 40 µM SOD1(A4V) or 50 µM Aβ solutions at the desired cyclic peptide:target protein molar ratio. SOD1(A4V) structural changes were monitored for 90 d at 25° C., under quiescent conditions. Aβ structural changes were monitored for 30 d at 33° C. under quiescent conditions. CD spectra in the range 190-260 nm were recorded on a JASCO J-715 spectropolarimeter (Jasco Co., Japan) using quartz cuvettes with 1 mm path length. Each reported spectrum is the average of three scans at a rate of 100 nm·min^-1 and a resolution of 0.5 nm.
In the case of B1, the binding result is “no binding”.
Under B2 stands “no binding”; under B3, “binds”.
